Patent US12139520B2 (priority 2020, dated 2024)
Bridge positions count the residues as written; N and C are the ends. Square brackets hold non-standard residues; d marks the D form. Ends that are not written are not given here. Hyp = O=C(O)[C@@H]1C[C@@H](O)CN1; Cit = NC(=O)NCCC[C@H](N)C(=O)O

T1: hAMY3R (human, UniProt P30988)
T1 sequence 1: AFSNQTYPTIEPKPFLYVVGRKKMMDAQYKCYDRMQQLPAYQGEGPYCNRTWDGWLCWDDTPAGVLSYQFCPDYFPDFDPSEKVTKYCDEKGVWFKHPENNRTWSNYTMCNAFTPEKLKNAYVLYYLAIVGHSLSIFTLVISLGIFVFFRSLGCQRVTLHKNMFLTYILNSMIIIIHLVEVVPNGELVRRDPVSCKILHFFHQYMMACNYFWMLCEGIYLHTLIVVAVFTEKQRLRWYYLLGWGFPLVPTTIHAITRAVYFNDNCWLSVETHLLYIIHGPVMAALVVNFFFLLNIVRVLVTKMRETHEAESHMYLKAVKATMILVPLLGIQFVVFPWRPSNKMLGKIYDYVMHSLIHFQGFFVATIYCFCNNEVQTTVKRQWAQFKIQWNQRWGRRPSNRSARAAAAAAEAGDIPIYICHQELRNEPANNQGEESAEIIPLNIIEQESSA
T1 sequence 2: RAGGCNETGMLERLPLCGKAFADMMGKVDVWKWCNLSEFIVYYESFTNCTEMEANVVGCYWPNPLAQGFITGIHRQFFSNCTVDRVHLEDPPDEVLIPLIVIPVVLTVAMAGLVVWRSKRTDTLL


What was measured:
hAMY3R = target: T1, hAMY3R; experiment: cell-based or functional assay
hAM1R = hAM1R (human, UniProt Q16602); experiment: cell-based or functional assay

Binder	hAMY3R EC50 (cAMP) (hAMY3R) [nM]	hAM1R EC50 (cAMP) (hAM1R) [nM]
GCRFGTCTVQ[Cit]LAHQIYQFTDKDKDNVAPRSNISPQG[Hyp]-NH2 (disulfide 2-7 (inferred); ends not checked) [SEQ ID NO: 300]	0.076	> 5000
GCRTGTCTVQ[Cit]LAHQIYQFTDKDKDNVAPRTKVGPQGY-NH2 (disulfide 2-7 (inferred); ends not checked) [SEQ ID NO: 298]	0.057	> 5000
GCRFGTCTVQ[Cit]LAHQIYQFTDKDKDNVAPRTNVSPQG[Hyp]-NH2 (disulfide 2-7 (inferred); ends not checked) [SEQ ID NO: 283]	0.035	> 5000
KCNTATCTVQRLAHQIYQFTDKDKDNVAPTNVGSNG[Hyp]-NH2 (disulfide 2-7 (inferred); ends not checked) [SEQ ID NO: 31]	0.008	> 5000
GCRFGTCTVQ[Cit]LAHQIYQFTDKDKDNVAPRTNISPQG[Hyp]-NH2 (disulfide 2-7 (inferred); ends not checked) [SEQ ID NO: 291]	0.064	> 5000
GCRTGTCTVQ[Cit]LAHQIYQFTDKDKDNVAPRSKIGPNG[Hyp]-NH2 (disulfide 2-7 (inferred); ends not checked) [SEQ ID NO: 299]	0.11	> 5000
GCRTGTCTVQ[Cit]LAHQIYQFTDKDKDNVAPRSKVGPQGY-NH2 (disulfide 2-7 (inferred); ends not checked) [SEQ ID NO: 285]	0.157	> 5000
KCNTATCTVQWLAHQIAQFTDKDKDNVAPPTNVGSNG[Hyp]-NH2 (disulfide 2-7 (inferred); ends not checked) [SEQ ID NO: 309]	0.025	> 5000
GCRFGTCTVQ[Cit]LAHQIYQFTDKDKDNVAPRTKISPQG[Hyp]-NH2 (disulfide 2-7 (inferred); ends not checked) [SEQ ID NO: 294]	0.045	> 5000
GCRFGTCTVQ[Cit]LAHFLYQFTDKDGAIAPRTKIGSQGY-NH2 (disulfide 2-7 (inferred); ends not checked) [SEQ ID NO: 282]	0.143	3880
GCRFGTCTVQ[Cit]LAHQIYQFTDKDKDNVAPRSKVSPQG[Hyp]-NH2 (disulfide 2-7 (inferred); ends not checked) [SEQ ID NO: 305]	0.085	> 5000
KCNTATCTVQRLAHQIYQFTDKDKDNVPPTNVGSNG[Hyp]-NH2 (disulfide 2-7 (inferred); not fully specified; ends not checked) [SEQ ID NO: 30]	0.008	> 5000
KCNTSTCTVAWLADQITQFSDKDKANVSPPTEVGPNS[Hyp]-NH2 (disulfide 2-7 (inferred); ends not checked) [SEQ ID NO: 310]	0.003	> 5000
GCRFGTCTVQ[Cit]LAHQIYQFTDKDKDNVAPRSNVGPQG[Hyp]-NH2 (disulfide 2-7 (inferred); ends not checked) [SEQ ID NO: 289]	0.005	3500
GCRTGTCTVQ[Cit]LAHQIYQFTDKDKDNVAPRSKVGPNG[Hyp]-NH2 (disulfide 2-7 (inferred); ends not checked) [SEQ ID NO: 290]	0.047	> 5000
KCNTATCTVQRLAHQIYQFTKDKDNVAPPTNVGSNG[Hyp]-NH2 (disulfide 2-7 (inferred); not fully specified; ends not checked) [SEQ ID NO: 29]	0.008	> 5000

Binder	hAMY3R EC50 (cAMP) (hAMY3R) [nM]	hAM1R EC50 (cAMP) (hAM1R) [nM]
GCRWGTCTVQ[Cit]LAHQIYQFTDKDKDNVAPRSKISPQT[Hyp]-NH2 (disulfide 2-7 (inferred); ends not checked) [SEQ ID NO: 296]	0.392	> 5000
KCNTATCTVQWLAHAIYQFTDKDKDNVAPPTNVGSNG[Hyp]-NH2 (disulfide 2-7 (inferred); ends not checked) [SEQ ID NO: 308]	0.014	> 5000
GCRTGTCTVQ[Cit]LAHQIYQFTDKDKDNVAPRTNVSPNG[Hyp]-NH2 (disulfide 2-7 (inferred); ends not checked) [SEQ ID NO: 302]	0.071	4330
GCRFGTCTVQ[Cit]LAHQIYQFTDKDKDNVAPRSNVSPQG[Hyp]-NH2 (disulfide 2-7 (inferred); ends not checked) [SEQ ID NO: 293]	0.063	> 5000
GCRIGTCTVQ[Cit]LAHQIYQFTDKFKDNVAPRSKISPQT[Hyp]-NH2 (disulfide 2-7 (inferred); ends not checked) [SEQ ID NO: 295]	0.194	> 5000
GCRTGTCTVQ[Cit]LAHQIYQFTDKDKDNVAPRSNIGPNG[Hyp]-NH2 (disulfide 2-7 (inferred); ends not checked) [SEQ ID NO: 297]	0.026	> 5000
GCRTGTCTVQ[Cit]LAHQIYQFTDKDKDNVAPRSNIGPQG[Hyp]-NH2 (disulfide 2-7 (inferred); ends not checked) [SEQ ID NO: 303]	0.103	> 5000
GCRFGTCTVQ[Cit]LAHQIYQFTDKDKDNVAPRTKVSPNG[Hyp]-NH2 (disulfide 2-7 (inferred); ends not checked) [SEQ ID NO: 288]	0.03	> 5000
GCRTGTCTVQ[Cit]LAHQIYQFTDKDKDNVAPRTKIGPQG[Hyp]-NH2 (disulfide 2-7 (inferred); ends not checked) [SEQ ID NO: 301]	0.138	> 5000
KCNTSTCTVAWLADQITQFSNKDKAQVSPPTEVGPNS[Hyp]-NH2 (disulfide 2-7 (inferred); ends not checked) [SEQ ID NO: 306]	0.003	> 5000
RCNASTCTVNWLADQITQFSNKDKAQVSPPTEVGPNS[Hyp]-NH2 (disulfide 2-7 (inferred); ends not checked) [SEQ ID NO: 307]	0.01	> 5000
GCRTGTCTVQ[Cit]LAHQIYQFTDKDKDNVAPRTKVGPQG[Hyp]-NH2 (disulfide 2-7 (inferred); ends not checked) [SEQ ID NO: 292]	0.07	> 5000
GCRTGTCTVQ[Cit]LAHQIYQFTDKDKDNVAPRSNVSPNG[Hyp]-NH2 (disulfide 2-7 (inferred); ends not checked) [SEQ ID NO: 304]	0.139	> 5000
GCRFGTCTVQ[Cit]LAHQIYQFTDKDKDNVAPRSKIGPQG[Hyp]-NH2 (disulfide 2-7 (inferred); ends not checked) [SEQ ID NO: 284]	0.028	591
GCRFGTCTVQ[Cit]LAHQIYQFTDKDKDNVAPRSNVSPQGY-NH2 (disulfide 2-7 (inferred); ends not checked) [SEQ ID NO: 286]	0.025	139
GCRFGTCTVQ[Cit]LAHQIYQFTDKDKDNVAPRTKVSPQG[Hyp]-NH2 (disulfide 2-7 (inferred); ends not checked) [SEQ ID NO: 287]	0.055	> 5000
